Laboratory results: paper PMC11172124 (Cells, 2024)

T1: Lamin B1 (human (endogenous in MCF10A and MDA-MB-231)), P20700
T1 chain: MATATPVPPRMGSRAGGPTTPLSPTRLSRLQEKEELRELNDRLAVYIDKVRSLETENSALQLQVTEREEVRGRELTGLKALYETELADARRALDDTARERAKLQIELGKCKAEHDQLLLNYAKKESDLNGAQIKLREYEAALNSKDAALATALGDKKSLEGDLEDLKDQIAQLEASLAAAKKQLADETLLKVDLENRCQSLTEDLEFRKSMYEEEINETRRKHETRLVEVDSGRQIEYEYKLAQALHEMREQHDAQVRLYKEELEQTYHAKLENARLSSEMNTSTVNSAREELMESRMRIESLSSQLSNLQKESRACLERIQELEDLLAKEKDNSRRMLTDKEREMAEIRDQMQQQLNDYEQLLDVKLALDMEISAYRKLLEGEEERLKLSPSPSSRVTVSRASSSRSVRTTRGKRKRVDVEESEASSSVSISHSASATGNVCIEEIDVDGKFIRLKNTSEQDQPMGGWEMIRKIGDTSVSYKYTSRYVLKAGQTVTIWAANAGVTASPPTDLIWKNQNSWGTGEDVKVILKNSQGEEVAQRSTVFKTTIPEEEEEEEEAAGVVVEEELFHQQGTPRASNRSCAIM


Legend:
[1] = target: the molecule itself; test: non-reducing SDS-PAGE with Western blot; MCF10A cell lysate with 20 mM N-ethylmaleimide, without β-mercaptoethanol, 4 min at 50 °C, 4–12% gradient gel; shows only disulphide-linked species
[2] = target: T1, Lamin B1 (human (endogenous in MCF10A …)); test: as above; settings: remark: other sources report otherwise

Row | stoichiometry N [2] | Binder | ratio of the >140 kDa SUN2 signal to the SUN2 monomer signal [1] | stoichiometry N [1]
1 |  | SUN2 (natural protein, UniProt Q9UH99-2 1-738, looked up, SUN2, human, endogenous in MCF10A and MDA-MB-231 cells; detected as a ~80 kDa monomer; Free cysteines were alkylated with 20 mM N-ethylmaleimide when the lysate was made; Which isoform the cells express was not determined; also called SUN-domain protein SUN2) MSRRSQRLTRYSQGDDDGSSSSGGSSVAGSQSTLFKDSPLRTLKRKSSNMKRLSPAPQLGPSSDAHTSYYSESLVHESWFPPRSSLEELHGDANWGEDLRVRRRRGTGGSESSRASGLVGRKATEDFLGSSSGYSSEDDYVEDSEGRGSKVTETEPVSSFPAGYSDVDQQSSSSRLRSAVSRAGSLLWMVATSPGRLFRLLYWWAGTTWYRLTTAASLLDVFVLTRRFSSLKTFLWFLLPLLLLTCLTYGAWYFYPYGLQTFHPALVSWWAAKDSRRPDEGWEARDSSPHFQAEQRVMSRVHSLERRLEALAAEFSSNWQKEAMRLERLELRQGAPGQGGGGGLSHEDTLALLEGLVSRREAALKEDFRRETAARIQEELSALRAEHQQDSEDLFKKIVRASQESEARIQQLKSEWQSMTQESFQESSVKELRRLEDQLAGLQQELAALALKQSSVAEEVGLLPQQIQAVRDDVESQFPAWISQFLARGGGGRVGLLQREEMQAQLRELESKILTHVAEMQGKSAREAAASLSLTLQKEGVIGVTEEQVHHIVKQALQRYSEDRIGLADYALESGGASVISTRCSETYETKTALLSLFGIPLWYHSQSPRVILQPDVHPGNCWAFQGPQGFAVVRLSARIRPTAVTLEHVPKALSPNSTISSAPKDFAIFGFDEDLQQEGTLLGKFTYDQDGEPIQTFHFQAPTMATYQVVELRILTNWGHPEYTCIYRFRVHGEPAH | ~1 | 2
2 | 2 | Lamin B1, P20700 1-586 (natural protein) MATATPVPPRMGSRAGGPTTPLSPTRLSRLQEKEELRELNDRLAVYIDKVRSLETENSALQLQVTEREEVRGRELTGLKALYETELADARRALDDTARERAKLQIELGKCKAEHDQLLLNYAKKESDLNGAQIKLREYEAALNSKDAALATALGDKKSLEGDLEDLKDQIAQLEASLAAAKKQLADETLLKVDLENRCQSLTEDLEFRKSMYEEEINETRRKHETRLVEVDSGRQIEYEYKLAQALHEMREQHDAQVRLYKEELEQTYHAKLENARLSSEMNTSTVNSAREELMESRMRIESLSSQLSNLQKESRACLERIQELEDLLAKEKDNSRRMLTDKEREMAEIRDQMQQQLNDYEQLLDVKLALDMEISAYRKLLEGEEERLKLSPSPSSRVTVSRASSSRSVRTTRGKRKRVDVEESEASSSVSISHSASATGNVCIEEIDVDGKFIRLKNTSEQDQPMGGWEMIRKIGDTSVSYKYTSRYVLKAGQTVTIWAANAGVTASPPTDLIWKNQNSWGTGEDVKVILKNSQGEEVAQRSTVFKTTIPEEEEEEEEAAGVVVEEELFHQQGTPRASNRSCAIM |  | 
